In US5849890, “High affinity oligonucleotide ligands to chorionic gonadotropin hormone and related glycoprotein hormones” (NeXstar Pharmaceuticals, Inc.):
Changes are numbered by the printed parent chain.

B1: 2nd generation ligand 73 (ssRNA)
RNA: GGGAGGACGAUGCGGGGUUUUCUAAGUGUUGAACGAUCCUUCACAUAGCGUGUCCCAGACGACUCGCCCGA
modifications: 2'-F all pyrimidines
B2: 2nd generation ligand 61 (ssRNA)
RNA: GGGAGGACGAUGCGGUUUAGUGUUUAGUUGAACGAUCCUUCUAACACCAGUCCCAGACGACUCGCCCGA
modifications: 2'-F all pyrimidines
B3: 2nd generation ligand 52 (ssRNA)
RNA: GGGAGGACGAUGCGGGAUUUUCCGUUAAUUGAACGAUCCUUUUCACGGACUGCAGACGACUCGCCCGA
modifications: 2'-F all pyrimidines
B4: 2nd generation ligand 25 (ssRNA)
RNA: GGGAGGACGAUGCGGUUCCUGAUUCAAGUUGAACGAUCCUUCCUGCUGUACGUCCAGACGACUCGCCCGA
modifications: 2'-F all pyrimidines
B5: 2nd generation ligand 33 (ssRNA)
RNA: GGGAGGACGAUGCGGUUCGAUGGCCAUUUGAACGAUCCUUAUUAUCAACGGUCCAGACGACUCGCCCGA
modifications: 2'-F all pyrimidines
B6: 2nd generation ligand 49 (ssRNA)
RNA: GGGAGGACGAUGCGGUUCGUCAUCGCUAUUGAACGAUCCUUUAGCUGAUGGACCAGACGACUCGCCCGA
modifications: 2'-F all pyrimidines
B7: 2nd generation ligand 74 (ssRNA)
RNA: GGGAGGACGAUGCGGUAAGUUCUAACUUUUGAACGAUCCUUGGCACCCUGACUACAGACGACUCGCCCGA
modifications: 2'-F all pyrimidines
B8: 2nd generation ligand 71 (ssRNA)
RNA: GGGAGGACGAUGCGGAUUCGAUUAGAGAUUGAACGAUCCUUUCAUCAGUUGGAUCAGACGACUCGCCCGA
modifications: 2'-F all pyrimidines
B9: 2nd generation ligand 42 (ssRNA)
RNA: GGGAGGACGAUGCGGGUUCGAAACUUCCUUGAACGAUCCUUGGAUGUUUUGCUCAGACGACUCGCCCGA
modifications: 2'-F all pyrimidines
B10: 2nd generation ligand 58 (ssRNA)
RNA: GGGAGGACGAUGCGGUCUUAAGUUUGAAUUGAACGAUCCUUUUCUUCCAGGCAACAGACGACUCGCCCGA
modifications: 2'-F all pyrimidines
B11: H-25 (ssRNA)
RNA: GGGAGGACGAUGCGGAAAGGAGGAGGCUGGGUGCGUCAAGAGUUCUCCCGAGCGCCAGACGACUCGCCCGA
modifications: 2'-NH2 all pyrimidines
B12: 2nd generation ligand 76 (ssRNA)
RNA: GGGAGGACGAUGCGGACCGACUAAAUGAUUGAACGAUCCUUAUUGUCUCUAUCACAGACGACUCGCCCGA
modifications: 2'-F all pyrimidines
B13: 2nd generation ligand 77 (ssRNA)
RNA: GGGAGGACGAUGCGGCAGUGUCAACAUCUUGAACGAUCCUUUUUUUCAGCGCGUCAGACGACUCGCCCGA
modifications: 2'-F all pyrimidines
B14: 2nd generation ligand 82 (ssRNA)
RNA: GGGAGGACGAUGCGGUAACAGUCGAUUCUUGAACGAUCCUUUCCACUUCAACCGCAGACGACUCGCCCGA
modifications: 2'-F all pyrimidines
B15: 2nd generation ligand 84 (ssRNA)
RNA: GGGAGGACGAUGCGGUUGGUUAUCCAUGUUGAACGUUCCUUCAUGUCGAAUAUGCAGACGACUCGCCCGA
modifications: 2'-F all pyrimidines
B16: 2nd generation ligand 37 (ssRNA)
RNA: GGGAGGACGAUGCGGAAUUCCCCCAAGAUUGAACGGUCCUUUCUCGCAGAUGUUCAGACGACUCGCCCGA
modifications: 2'-F all pyrimidines
B17: 2nd generation ligand 7 (ssRNA)
RNA: GGGAGGACGAUGCGGAUGAGCUUGAUAAUGGAACGAUCCUUUUAACGGUUCUUCCAGACGACUCGCCCGA
modifications: 2'-F all pyrimidines
B18: 2nd generation ligand 8 (ssRNA)
RNA: GGGAGGACGAUGCGGUUCGAUUCCAAGUUGAACGAUCCUCCUUUUGAUUAGACCAGACGACUCGCCCGA
modifications: 2'-F all pyrimidines
B19: 2nd generation ligand 59 (ssRNA)
RNA: GGGAGGACGAUGCGGUAACUCUUAAUUCUUGAACAAUCCUUGAAUUUAGCGGACCAGACGACUCGCCCGA
modifications: 2'-F all pyrimidines
B20: 2nd generation ligand 95 (ssRNA)
RNA: GGGAGGACGAUGCGGGUUUUCCUACUAGUUGAAUGAUCCUUCUAGUUAGAUGCCAGACGACUCGCCCGA
modifications: 2'-F all pyrimidines
B21: Class 1 ligand 11 (ssRNA)
RNA: GGGAGACAAGAAUAAACGCUCAAUUUAGAAGAUCCCGGAGUCUCGUUGGUCGUUGAACGAUCCUUCGACAGGAGGCUCACAACAGGC
modifications: 2'-F all pyrimidines
B22: Class 1 ligand 40 (ssRNA)
RNA: B21 RNA with U26C, A27U, G37A
modifications: 2'-F all pyrimidines
B23: Class 1 ligand 10 (ssRNA)
RNA: B21 RNA with U26C, A27G, C35A
modifications: 2'-F all pyrimidines
B24: Class 1 ligand 5 (ssRNA)
RNA: B21 RNA with U24A, A27G, A30G, G31U, G37U, C44U, A60G
modifications: 2'-F all pyrimidines
B25: Class 1 ligand 26 (ssRNA)
RNA: B21 RNA with A27G, G37U
modifications: 2'-F all pyrimidines
B26: Class 1 ligand 16 (ssRNA)
RNA: B21 RNA with U26C, A27G, G37A
modifications: 2'-F all pyrimidines
B27: Class 1 ligand 18 (first SELEX) (ssRNA)
RNA: B21 RNA with A27C, G37U
modifications: 2'-F all pyrimidines
B28: Class 1 ligand 49 (ssRNA)
RNA: B21 RNA with A27G, G38A, A39G, G40A
modifications: 2'-F all pyrimidines
B29: Class 1 ligand 30 (ssRNA)
RNA: GGGAGACAAGAAUAAACGCUCAAAAGUCACUCGCAGCGCUUCCUGGUUCGAUUGAACGAUCCUUUCGACAGGAGGCUCACAACAGGC
modifications: 2'-F all pyrimidines
B30: Class 1 ligand 8 (ssRNA)
RNA: GGGAGACAAGAAUAAACGCUCAAGUGCCCUGUUAUCUUCCUCGAUCGAUUGAACGAUCCUUUCGACAGGAGGCUCACAACAGGC
modifications: 2'-F all pyrimidines
B31: Class 1 ligand 56 (ssRNA)
RNA: GGGAGACAAGAAUAAACGCUCAAUUUGGAAGAUCCCUGGAGUCUCGUUGGUCGUUGAACGAUCCUUCGACAGGAGGCUCACAACAGGC
modifications: 2'-F all pyrimidines
B32: Class 1 ligand 37 (ssRNA)
RNA: GGGAGACAAGAAUAAACGCUCAAUUUGGAAGGUCCUGAGUCUCGUUGGUCGUUGAACGAUCCUUCGACAGGAGGCUCACAACAGGC
modifications: 2'-F all pyrimidines
B33: Class 1 ligand 43 (ssRNA)
RNA: GGGAGACAAGAAUAAACGCUCAACCAGAUAAUCCCAAUGAGUCCCUCGAGAUUGAACGAUCCUUUCGACAGGAGGCUCACAACAGGC
modifications: 2'-F all pyrimidines
B34: Class 1 ligand 4 (ssRNA)
RNA: GGGAGACAAGAAUAAACGCUCAAUUUGGAAGAUCCCGGAGUCUCGUUGGUGUUGAACGAUUCUUCGACAGGAGGCUCACAACAGGC
modifications: 2'-F all pyrimidines
B35: Class 1 ligand 20 (ssRNA)
RNA: GGGAGACAAGAAUAAACGCUCAAGUCAUAAGCCUAACGGUCCCUAGUCAAUUGAACGAUCCUUCGACAGGAGGCUCACAACAGGC
modifications: 2'-F all pyrimidines
B36: Class 1 ligand 28 (ssRNA)
RNA: GGGAGACAAGAAUAAACGCUCAAACAGCGAUUGAACGAUCCUUUCAGCUGAUGGGUACGGGAUUCGACAGGAGGCUCACAACAGGC
modifications: 2'-F all pyrimidines

target: T1, human chorionic gonadotropin (hCG) heterodimer (Homo sapiens, UniProt P01215;P0DN86 P01215:25-116,P0DN86:21-165); experiment: filter; conditions: tags: Calbiochem or Vitro Diagnostics (14,000 IU/mg); chain copies: alpha/beta heterodimer (stated); label: 32P
T1 sequence (P01215 25-116, chain 1 of 2, other chains not shown): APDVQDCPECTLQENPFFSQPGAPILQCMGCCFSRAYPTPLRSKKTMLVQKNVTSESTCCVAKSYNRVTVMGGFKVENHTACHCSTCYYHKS

Row | Binder | binding signal
1 | B1 | 0.84 % bound at 100 nM
2 | B2 | 15.5 % bound at 100 nM
3 | B3 | 6.01 % bound at 100 nM
4 | B4 | 0.28 % bound at 100 nM
5 | B5 | 0.59 % bound at 100 nM
6 | B6 | 14.4 % bound at 100 nM
7 | B7 | 11.5 % bound at 100 nM
8 | B8 | 6.99 % bound at 100 nM
9 | B9 | 0.54 % bound at 100 nM
10 | B10 | 0 % bound at 100 nM

target: human luteinizing hormone (hLH) (Homo sapiens, UniProt P01215;P01229 P01215:25-116,P01229:21-141); experiment: filter; conditions: tags: Becton Dickinson (2'-NH2 work); Scripps/Vitro Diagnostics (2'-F work); chain copies: alpha/beta heterodimer (inferred); label: 32P; G4 (RNase T1 protection in K+)
Protocol: Internally-labeled RNA transcripts were prepared by including [α-^32P]ATP in T7 RNA polymerase transcription reactions. Full-length transcripts were purified on 8% denaturing polyacrylamide gels to ensure size homogeneity. Gel-purified RNA was diluted to a concentration of ~5 nM in TEM buffer, heated to 80° C. then chilled on ice to facilitate secondary structure formation. RNA concentrations were kept lower than 100 pM in binding reactions. Briefly, equal amounts of RNA were incubated with varying amounts of hormone in 50 μL of TEM buffer for 10 minutes at 37° C. RNA-protein mixtures were passed through pre-wet nitrocellulose filters (0.2μ), and the filters were immediately washed with 5 mL of binding buffer. Radioactivity retained on filters was determined by liquid scintillation counting. The quantities of RNA bound to filters in the absence of protein was determined and used for background correction. The percentage of input RNA retained on each filter was plotted against the corresponding log protein concentration. The nonlinear least square method was used to obtain the dissociation constant (K_d) (Jellinek et al. (1993) Proc. Natl. Acad. Sci. U.S.A. 90:11227–11231; Irvine et al. (1991) J. Mol. Biol. 222:739–761).
By incorporating a counterselection step, SELEX allowed the isolation of hCG-specific RNA ligands (Example 5, infra).

Sequence of human luteinizing hormone (hLH) (P01215 25-116, chain 1 of 2): as the sequence (P01215 25-116, chain 1 of 2, other chains not shown) above
Sequence of human luteinizing hormone (hLH) (P01229 21-141, chain 2 of 2): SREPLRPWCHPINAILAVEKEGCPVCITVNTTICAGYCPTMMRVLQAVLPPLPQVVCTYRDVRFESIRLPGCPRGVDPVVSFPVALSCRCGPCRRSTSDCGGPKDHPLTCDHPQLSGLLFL

Row | Binder | Kd
11 | B11 | 17.5 nM

target: T1, human chorionic gonadotropin (hCG) …; experiment: filter; no significant stem; conditions: tags: Calbiochem or Vitro Diagnostics (14,000 IU/mg); chain copies: alpha/beta heterodimer (stated); label: 32P
Description: (§1) PCR products generated from the RNA population isolated after six cycles of selection were cloned into pUC18 and 43 clones were sequenced (Table 13). As with the high affinity ligands selected in the first SELEX experiment in this example, 37 of the sequenced ligands are capable of assuming a stem-loop structure which places the conserved, unselected, 13-nt sequence in the "loop" structure.

Row | Binder | binding signal
12 | B12 | 0.2 % bound at 100 nM
13 | B13 | 0.42 % bound at 100 nM
14 | B14 | 0 % bound at 100 nM

target: T1, human chorionic gonadotropin (hCG) …; experiment: filter; conserved region mutated; conditions: tags: Calbiochem or Vitro Diagnostics (14,000 IU/mg); chain copies: alpha/beta heterodimer (stated); label: 32P
Description: as §1

Row | Binder | binding signal
15 | B15 | 0.24 % bound at 100 nM
16 | B16 | 0 % bound at 100 nM
17 | B17 | 0 % bound at 100 nM
18 | B18 | 0.73 % bound at 100 nM
19 | B19 | 1.88 % bound at 100 nM
20 | B20 | 1.57 % bound at 100 nM

target: T1, human chorionic gonadotropin (hCG) …; experiment: filter; 5.8 +/- 2.8 nM in Table 5; conditions: tags: Calbiochem or Vitro Diagnostics (14,000 IU/mg); chain copies: alpha/beta heterodimer (stated); label: 32P; G4 (RNase T1 protection in K+)

Row | Binder | Kd
21 | B11 | 6 nM

target: T1, human chorionic gonadotropin (hCG) …; experiment: filter; conditions: tags: Calbiochem or Vitro Diagnostics (14,000 IU/mg); chain copies: alpha/beta heterodimer (stated); label: 32P; remark: another data set of the same source

Row | Binder | binding signal
22 | B21 | 3.09 % bound at 100 nM
23 | B22 | 2.2 % bound at 100 nM
24 | B23 | 3.59 % bound at 100 nM
25 | B24 | 1.26 % bound at 100 nM
26 | B25 | 3.34 % bound at 100 nM
27 | B26 | 5.41 % bound at 100 nM
28 | B27 | 2.69 % bound at 100 nM
29 | B28 | 3.77 % bound at 100 nM
30 | B29 | 0.58 % bound at 100 nM
31 | B30 | 0.98 % bound at 100 nM
32 | B31 | 3.85 % bound at 100 nM
33 | B32 | 1.89 % bound at 100 nM
34 | B33 | 0.93 % bound at 100 nM
35 | B34 | 4.81 % bound at 100 nM
36 | B35 | 0.13 % bound at 100 nM
37 | B36 | 0.58 % bound at 100 nM
